According to patent CN111690058A:

Biological target: S蛋白RBD-His (319Arg-532Asn) (2019-nCoV (SARS-CoV-2)) (UniProt P0DTC2)
Experiment: BLI (Fortebio), RBD-His on Anti-Penta-HIS sensor, antibody in solution

Work on 对照抗体CR3022 (antibody) yielded a Kd of 2.42 nM, a koff of 0.000278 s⁻¹ and a kon of 115000 M⁻¹ s⁻¹.
